Data set [1] has as its target T1, PCBP1 (wild type) (UniProt Q15365 1-356). Briefly: EMSA; pH 6.4, i-motif; MST: 20 mM MES pH 6.4, phosphate pH 7.0 or Tris-Cl pH 8.0, 100 mM NaCl, 25 C; EMSA: 20 mM Bis-Tris pH 6.4 or Tris-HCl pH 8.0, 100 mM NaCl, 0.25 mg/mL BSA, 25 C; NMR/CD: 20 mM MES pH 6.4, 100 mM NaCl; footprinting 20 mM MES pH 6.4, 50 mM NaCl. The following applies: protein: recombinant; tags: His tag (pET-His1a), removed by TEV; label: 5'-Cy5 (EMSA, MST); intramolecular i-motif at pH 6.4; unfolded at pH 7.0 and 8.0. A general note: Mobility shift assays separate free from complexed probe on a gel.

Data set [2] concerns the target T1, PCBP1 (wild type). Put plainly: CD titration; stronger blue-shift than wild-type BCL2; MST: 20 mM MES pH 6.4, phosphate pH 7.0 or Tris-Cl pH 8.0, 100 mM NaCl, 25 C; EMSA: 20 mM Bis-Tris pH 6.4 or Tris-HCl pH 8.0, 100 mM NaCl, 0.25 mg/mL BSA, 25 C; NMR/CD: 20 mM MES pH 6.4, 100 mM NaCl; footprinting 20 mM MES pH 6.4, 50 mM NaCl. The settings on record: protein: recombinant; tags: His tag (pET-His1a), removed by TEV; i-motif without hairpin.

For data set [3], the target named is T1, PCBP1 (wild type). Put plainly: MST; pH 6.4, i-motif; stronger than pH 8.0; MST: 20 mM MES pH 6.4, phosphate pH 7.0 or Tris-Cl pH 8.0, 100 mM NaCl, 25 C; EMSA: 20 mM Bis-Tris pH 6.4 or Tris-HCl pH 8.0, 100 mM NaCl, 0.25 mg/mL BSA, 25 C; NMR/CD: 20 mM MES pH 6.4, 100 mM NaCl; footprinting 20 mM MES pH 6.4, 50 mM NaCl. The settings on record: protein: recombinant; tags: His tag (pET-His1a), removed by TEV; label: 5'-Cy5 (MST); i-motif at pH 6.4 and 7.0; unfolded at pH 8.0.

Data set [4] concerns the target T1, PCBP1 (wild type). Put plainly: EMSA; pH 6.4; MST: 20 mM MES pH 6.4, phosphate pH 7.0 or Tris-Cl pH 8.0, 100 mM NaCl, 25 C; EMSA: 20 mM Bis-Tris pH 6.4 or Tris-HCl pH 8.0, 100 mM NaCl, 0.25 mg/mL BSA, 25 C; NMR/CD: 20 mM MES pH 6.4, 100 mM NaCl; footprinting 20 mM MES pH 6.4, 50 mM NaCl. The following applies: protein: recombinant; tags: His tag (pET-His1a), removed by TEV; label: 5'-Cy5 (EMSA); unfolded.

In data set [5] the target is T2, PCBP1 KH1+2;PCBP1 KH3 (Homo sapiens?;Homo sapiens?, UniProt Q15365;Q15365 1-169;269-356, |). Briefly: bromine footprinting; pH 6.4; cleavage enhanced across all Cs; MST: 20 mM MES pH 6.4, phosphate pH 7.0 or Tris-Cl pH 8.0, 100 mM NaCl, 25 C; EMSA: 20 mM Bis-Tris pH 6.4 or Tris-HCl pH 8.0, 100 mM NaCl, 0.25 mg/mL BSA, 25 C; NMR/CD: 20 mM MES pH 6.4, 100 mM NaCl; footprinting 20 mM MES pH 6.4, 50 mM NaCl. The settings on record: protein: recombinant;recombinant, tags: His tag (pET-His1a), removed by TEV;His tag (pET-His1a), copies: 1;1, label: 3'-Cy5, intramolecular i-motif at pH 6.4.

The target in data set [6] is T1, PCBP1 (wild type). Put plainly: bromine footprinting; pH 6.4; enhanced cleavage across all Cs; MST: 20 mM MES pH 6.4, phosphate pH 7.0 or Tris-Cl pH 8.0, 100 mM NaCl, 25 C; EMSA: 20 mM Bis-Tris pH 6.4 or Tris-HCl pH 8.0, 100 mM NaCl, 0.25 mg/mL BSA, 25 C; NMR/CD: 20 mM MES pH 6.4, 100 mM NaCl; footprinting 20 mM MES pH 6.4, 50 mM NaCl. The following applies: protein: recombinant; tags: His tag (pET-His1a), removed by TEV; label: 3'-Cy5; intramolecular i-motif at pH 6.4.

The target in data set [7] is T3, PCBP1 KH1+2 (UniProt Q15365 1-169). Briefly: bromine footprinting; pH 6.4; increased cleavage at C3-C5 and C12-C14; MST: 20 mM MES pH 6.4, phosphate pH 7.0 or Tris-Cl pH 8.0, 100 mM NaCl, 25 C; EMSA: 20 mM Bis-Tris pH 6.4 or Tris-HCl pH 8.0, 100 mM NaCl, 0.25 mg/mL BSA, 25 C; NMR/CD: 20 mM MES pH 6.4, 100 mM NaCl; footprinting 20 mM MES pH 6.4, 50 mM NaCl. The following applies: protein: recombinant; tags: His tag (pET-His1a), removed by TEV; label: 3'-Cy5; intramolecular i-motif at pH 6.4.

In data set [8] the target is T2, PCBP1 KH1+2;PCBP1 KH3. Briefly: MST; pH 6.4; affinity and selectivity for i-motif restored; MST: 20 mM MES pH 6.4, phosphate pH 7.0 or Tris-Cl pH 8.0, 100 mM NaCl, 25 C; EMSA: 20 mM Bis-Tris pH 6.4 or Tris-HCl pH 8.0, 100 mM NaCl, 0.25 mg/mL BSA, 25 C; NMR/CD: 20 mM MES pH 6.4, 100 mM NaCl; footprinting 20 mM MES pH 6.4, 50 mM NaCl. The settings on record: protein: recombinant;recombinant, tags: His tag (pET-His1a), removed by TEV;His tag (pET-His1a), copies: 1;1, label: 5'-Cy5 (EMSA, MST), intramolecular i-motif at pH 6.4, unfolded at pH 7.0 and 8.0.

The target in data set [9] is T3, PCBP1 KH1+2. Put plainly: MST; pH 6.4; no structural selectivity; MST: 20 mM MES pH 6.4, phosphate pH 7.0 or Tris-Cl pH 8.0, 100 mM NaCl, 25 C; EMSA: 20 mM Bis-Tris pH 6.4 or Tris-HCl pH 8.0, 100 mM NaCl, 0.25 mg/mL BSA, 25 C; NMR/CD: 20 mM MES pH 6.4, 100 mM NaCl; footprinting 20 mM MES pH 6.4, 50 mM NaCl. The following applies: protein: recombinant; tags: His tag (pET-His1a), removed by TEV; label: 5'-Cy5 (EMSA, MST); intramolecular i-motif at pH 6.4; unfolded at pH 7.0 and 8.0.

The target in data set [10] is T1, PCBP1 (wild type). Put plainly: EMSA; pH 6.4, i-motif; two shifted bands; MST: 20 mM MES pH 6.4, phosphate pH 7.0 or Tris-Cl pH 8.0, 100 mM NaCl, 25 C; EMSA: 20 mM Bis-Tris pH 6.4 or Tris-HCl pH 8.0, 100 mM NaCl, 0.25 mg/mL BSA, 25 C; NMR/CD: 20 mM MES pH 6.4, 100 mM NaCl; footprinting 20 mM MES pH 6.4, 50 mM NaCl. The following applies: protein: recombinant; tags: His tag (pET-His1a), removed by TEV; label: 5'-Cy5 (EMSA, MST); intramolecular i-motif with co-existing hairpin at pH 6.4; unfolded at pH 7.0 and 8.0.

T1 sequence (Q15365 whole entry): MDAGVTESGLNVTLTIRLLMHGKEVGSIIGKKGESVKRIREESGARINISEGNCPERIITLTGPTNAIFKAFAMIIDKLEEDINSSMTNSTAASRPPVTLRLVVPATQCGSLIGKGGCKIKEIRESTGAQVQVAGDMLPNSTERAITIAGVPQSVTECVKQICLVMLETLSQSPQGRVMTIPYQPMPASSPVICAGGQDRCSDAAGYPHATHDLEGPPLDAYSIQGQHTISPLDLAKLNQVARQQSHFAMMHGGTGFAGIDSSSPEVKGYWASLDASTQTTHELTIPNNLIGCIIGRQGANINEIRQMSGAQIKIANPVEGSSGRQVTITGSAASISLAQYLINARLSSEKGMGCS
T3 sequence (Q15365 1-169): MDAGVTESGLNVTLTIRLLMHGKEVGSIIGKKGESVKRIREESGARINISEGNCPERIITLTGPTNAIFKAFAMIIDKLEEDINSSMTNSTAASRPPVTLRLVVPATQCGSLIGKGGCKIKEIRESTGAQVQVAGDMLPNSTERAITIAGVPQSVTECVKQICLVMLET
T2 sequence (Q15365 1-169, chain 1 of 2): as the sequence (Q15365 1-169) above
T2 sequence (Q15365 269-356, chain 2 of 2): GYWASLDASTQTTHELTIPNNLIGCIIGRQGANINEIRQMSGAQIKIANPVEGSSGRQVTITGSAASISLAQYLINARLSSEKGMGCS

CCCTAACCCTAACCCTAACCCT (structured_DNA) [hTeloC-iMfs]: in data set [1], the binding result is given as “binds”.

As to CATCCCCTCTCCCTCCCCCTTCCTCCCTCTCCCTCCCCT (structured_DNA) [BCL2-Gall>T], in [2], the binding result is reported as “binds”.

On to CCCCCCCTTTCCCCCCCTTTCCCCCCCTTTCCCCCCC (structured_DNA) [C7T3-iMfs], for which the binding result in data set [3] is listed as “binds”.

As to TACACTCACACTCACACTCACACTCAA (ssDNA) [mutC], the binding result in [4] is listed as “no binding”.

As for TGTCCCCACACCCCTGTCCCCACACCCCTGT (structured_DNA) [ILPR-iMfs], the binding result in [1] is “binds”.

AATCCCACCCCTCCCATCCCTTTTT (structured_DNA) [cMYC-iMfs-Br]: the binding result in data set [5], in [6] and in data set [7] was “binds” in each case.

Turning to AATCCCACCCCTCCCATCCCTT (structured_DNA) [cMYC-iMfs], the binding result in [8], in data set [9] and in data set [1] was “binds” throughout.

CAGCCCCGCTCCCGCCCCCTTCCTCCCGCGCCCGCCCCT (structured_DNA) [BCL2-iMfs]: the binding result in data set [10] is “binds”.

Take CAGCCCCGCTCCCGCCCCCTTCCTCCCTCTCCCGCCCCT (structured_DNA) [BCL2-G10TG12T]: the binding result in [2] was “binds”.

(Values after publication PMC12865031, “Mechanistic insights into PCBP1-driven unfolding of selected i-motif DNA at G1/S checkpoint”.)
